Biological target: fusion-competent ectodomain of influenza virus A/PR8/34 (Ecto-PR8/34) hemagglutinin (influenza virus A/PR/8/34, UniProt P03452 18-528)
Assay: BLI

Chain of fusion-competent ectodomain of influenza virus A/PR8/34 (Ecto-PR8/34) hemagglutinin (P03452 18-528): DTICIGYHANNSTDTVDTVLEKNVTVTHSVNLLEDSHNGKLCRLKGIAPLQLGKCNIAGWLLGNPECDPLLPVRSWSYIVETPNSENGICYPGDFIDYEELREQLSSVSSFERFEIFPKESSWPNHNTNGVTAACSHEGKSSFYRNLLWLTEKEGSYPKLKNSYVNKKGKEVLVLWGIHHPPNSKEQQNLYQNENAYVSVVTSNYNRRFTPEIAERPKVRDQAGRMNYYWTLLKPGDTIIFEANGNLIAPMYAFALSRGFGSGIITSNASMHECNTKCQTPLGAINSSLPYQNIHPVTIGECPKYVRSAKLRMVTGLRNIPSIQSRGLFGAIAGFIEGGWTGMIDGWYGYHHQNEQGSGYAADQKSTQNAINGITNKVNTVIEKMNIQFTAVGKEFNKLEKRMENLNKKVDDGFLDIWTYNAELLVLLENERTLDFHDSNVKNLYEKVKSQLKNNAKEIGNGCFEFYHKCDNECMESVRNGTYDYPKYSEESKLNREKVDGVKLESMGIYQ

B1: anti-HA antibody C179 (antibody, V domains shown)
VH: EVKLVESGGGLVQPGGSLRLSCGTSGFTLTDDYMTWVRQPPGKALEWLGFIRDRANGYTTEYSASVKGRFTISRDNSQSIVYLQMNTLRVEDSATYYCARPKGYFPYAMDYWGQGTSVIVSS
VL: DIQMTQSPASQSASLGESVTITCLASQTIGTWLAWYQQKPGKSPQLLIYAATSLADGVPSRFSGSGSGTKFSFKISSLQAEDFVSYYCQQLYSTPWTFGGGTRLEIKR
  Kd: 18.4 nM

— PMC10823224 (2024)
